Assay results taken from US20250277031A1 (BEIJING HANMI PHARMACEUTICAL, published 2025).

T1: recombinant human CD86 (ACROBiosystems) (human, UniProt P42081 26-247, limits assumed)
T1 construct: counted here as a B7 family member
T1 sequence (looked up): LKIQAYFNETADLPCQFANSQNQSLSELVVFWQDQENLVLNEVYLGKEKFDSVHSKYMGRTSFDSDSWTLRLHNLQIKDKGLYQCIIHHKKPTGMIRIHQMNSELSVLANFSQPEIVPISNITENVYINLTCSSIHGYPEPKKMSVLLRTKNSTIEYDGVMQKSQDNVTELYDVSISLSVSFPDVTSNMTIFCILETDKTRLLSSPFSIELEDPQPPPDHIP

T2: recombinant human B7-H2 (ACROBiosystems) (human, UniProt O75144 19-258, limits assumed)
T2 construct: counted here as a B7 family member
T2 sequence (looked up): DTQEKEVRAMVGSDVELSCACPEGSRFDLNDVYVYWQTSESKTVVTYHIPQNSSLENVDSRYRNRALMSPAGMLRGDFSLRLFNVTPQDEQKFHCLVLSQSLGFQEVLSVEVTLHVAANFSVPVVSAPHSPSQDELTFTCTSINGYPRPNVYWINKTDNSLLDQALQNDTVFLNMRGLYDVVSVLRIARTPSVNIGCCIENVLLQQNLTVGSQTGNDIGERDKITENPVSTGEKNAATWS


Assays:
[1] = target: T3, recombinant human CD47 (human, UniProt Q08722 19-139); assay: ELISA, plate coated with 1 µg/mL recombinant human CD47, OD450
T3 construct: also called antigen CD47
T3 sequence (Q08722 19-139 limits assumed): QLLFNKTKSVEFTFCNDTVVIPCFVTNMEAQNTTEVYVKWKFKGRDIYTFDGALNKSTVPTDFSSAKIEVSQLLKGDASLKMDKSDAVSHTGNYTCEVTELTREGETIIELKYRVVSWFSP
Procedure: A 96-well high-adsorption ELISA plate was coated with 1 μg/mL of the recombinant human CD47 (Sino Biological Inc.) at 100 μL per well using carbonate buffer solution, pH=9.6 at 4° C. overnight. The plate was washed 5 times with PBST, and then blocked using PBST with 1% BSA, 300 μL/well, and incubated at 25° C. for 1 hour, and then washed 5 times with PBST. The anti-human CD47 antibody samples and the control CC-90002 (a patent sequence from WO2016109415) were added, 100 μL/well, incubated at 25° C. for 1 hour, and then washed 5 times with PBST. The horseradish peroxidase-labeled anti-mouse IgG antibody (Abcam, catalog number Ab7068) diluted 1:10000 in PBST with 1% BSA was then added, 100 μL per well, and incubated at 25° C. for 1 hour. The plate was washed 5 times with PBST. The colorimetric substrate TMB was added, 100 μL/well, and developed at room temperature for 10 minutes. 1M H₂SO₄ was added, 100 μL/well, to stop the development. The absorbance at 450 nm was read on a microplate reader.

[2] = target: T4, recombinant human CD47-Fc protein (ACROBiosystems, catalog number CD7-H52A5) (human, UniProt Q08722 19-139); assay: blocking ELISA: plate coated with human CD47-Fc, 2 nM biotin-labelled SIRPα as the blocked ligand, falling OD450 curve; the sheet labels the half-maximal value EC50
T4 construct: bought; not shown: Fc part of a bought fusion protein, not described
T4 sequence (Q08722 19-139 limits assumed): as above
Procedure: A 96-well high-adsorption ELISA plate was coated with 1 μg/mL of the recombinant human CD47-Fc (ACROBiosystems) at 100 μL per well using carbonate buffer solution, pH=9.6 at 4° C. overnight. The plate was washed 5 times with PBST, and then blocked using PBST with 1% BSA, 300 μL/well, and incubated at 25° C. for 1 hour, and then washed 5 times with PBST. The anti-human CD47 antibody samples were added, 50 μL/well, the biotin-labelled SIRPα (ACROBiosystems) was added at a concentration of 4 nM (a final concentration of 2 nM), 50 μL/well, incubated at 25° C. for 90 minutes, and then washed 5 times with PBST. The Streptavidin-HRP (BD Pharmingen, catalog number 554066) diluted 1:1000 in PBST with 1% BSA was then added, 100 μL per well, and incubated at 25° C. for 1 hour. The plate was washed 5 times with PBST. The colorimetric substrate TMB was added, 100 μL/well, and developed at room temperature for 10 minutes. 1M H₂SO₄ was added, 100 μL/well, to stop the development. The absorbance at 450 nm was read on a microplate reader.

[3] = target: T1, recombinant human CD86 (ACROBiosystems); assay: ELISA, coated recombinant protein
Procedure: (§1) Binding specificity of the chimeric anti-human CD47 mAbs was determined by ELISA. A 96-well high-adsorption ELISA plate was coated with 1 μg/mL of the recombinant human PD1, CD28, CTLA4, ICOS, BTLA, CD47, PD-L2, CD80, CD86, B7-H2, CD47, SIRPα and SIRPγ (all from ACROBiosystems), at 100 μL per well using carbonate buffer solution, pH=9.6 at 4° C. overnight. The plate was washed 5 times with PBST, and then blocked using PBST with 1% BSA, 300 μL/well, and incubated at 25° C. for 1 hour, and then washed 5 times with PBST. The chimeric anti-human CD47 mAb samples serially diluted in PBST with 1% BSA and the control CC-90002 and the isotype control were added, 100 μL/well, incubated at 25° C. for 1 hour, and then washed 5 times with PBST. The horseradish peroxidase-labeled anti-human IgG antibody (Chemicon, catalog number AP309P) diluted 1:10000 in PBST with 1% BSA was then added, 100 μL per well, and incubated at 25° C. for 1 hour. The plate was washed 5 times with PBST. The colorimetric substrate TMB was added, 100 μL/well, and developed at room temperature for 10 minutes. 1M H₂SO₄ was added, 100 μL/well, to stop the development. The absorbance at 450 nm was read on a microplate reader.

[4] = target: recombinant human SIRPγ (ACROBiosystems) (human, UniProt Q9P1W8 29-360, limits assumed); assay: ELISA, coated recombinant protein
Chain of recombinant human SIRPγ (ACROBiosystems) (Q9P1W8 29-360 limits assumed): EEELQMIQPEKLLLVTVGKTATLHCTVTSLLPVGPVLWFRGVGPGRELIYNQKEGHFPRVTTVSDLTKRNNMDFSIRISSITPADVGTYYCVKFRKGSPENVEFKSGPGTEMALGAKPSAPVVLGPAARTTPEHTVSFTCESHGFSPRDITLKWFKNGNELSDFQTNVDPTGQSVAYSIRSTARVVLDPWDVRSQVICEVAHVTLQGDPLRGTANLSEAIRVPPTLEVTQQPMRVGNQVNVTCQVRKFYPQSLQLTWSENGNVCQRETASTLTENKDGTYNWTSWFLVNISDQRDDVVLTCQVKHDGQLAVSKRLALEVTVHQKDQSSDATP
Procedure: as §1

[5] = target: T2, recombinant human B7-H2 (ACROBiosystems); assay: ELISA, coated recombinant protein
Procedure: as §1

[6] = target: T3, recombinant human CD47; assay: SPR, Biacore X100, antibody captured on Protein A chip, CD47 as analyte
Excerpt: Biacore X100 instrument (purchased from GE) was used to detect the kinetic constant of the chimeric anti-human CD47 monoclonal antibodies binding to its antigen human CD47. This instrument utilizes optical surface plasmon resonance technology to detect the association and dissociation between the molecules coated on the biochip and the molecules to be tested. The main reagent used is Protein A chip (GE Healthcare, 29-1275-57). The experimental procedure is briefly described as follows: the chimeric anti-human CD47 antibodies were diluted in running buffer (1×HBS-EP+10 mM HEPES, 150 mM NaCl, 3 mM EDTA, 0.05% surfactant P20, pH7.4). During the capture-binding phase, the antibodies at a concentration of 2 μg/mL were injected for 60 seconds at a speed of 10 μL/min. During the binding phase, the antigen CD47 was diluted into multiple concentrations with running buffer, injected for 120 seconds at a speed of 30 μL/min respectively. During the dissociation phase, running buffer was injected for 600 seconds at a speed of 10 μL/min. The regeneration condition is 10 mM glycinate solution, pH1.5. Association kinetic constants and dissociation kinetic constants were analyzed and calculated by Biacore X100 evaluation software. The association kinetic constants, dissociation kinetic constants and dissociation equilibrium constants of the chimeric anti-human CD47 antibodies were shown in Table 7.

EC50 [1] [nM]	IC50 [2] [nM]	binding result [3]	binding result [4]	binding result [5]	Kd [6] [nM]	koff [6] [s⁻¹]	kon [6] [M⁻¹ s⁻¹]	Binder
0.026	1.75	no binding	no binding	no binding				chimeric anti-human CD47 monoclonal antibody mAb-18-5 N297A (antibody, human IgG1, kappa, N297A, no further substitution applied) heavy: not shown light: DIVMTQSQKFMSTSVGDRVSITCKASQNVRTSIAWYQQKSGQSPKTLIYLASNRHTGVPDRFTGSGSGTDFTLTISNVQSEDLADYFCLQHWNYPFTFGSGTKLEIKRTVAAPSVFIFPPSDEQLKSGTASVVCLLNNFYPREAKVQWKVDNALQSGNSQESVTEQDSKDSTYSLSSTLTLSKADYEKHKVYACEVTHQGLSSPVTKSFNRGEC
0.026	1.64	no binding	no binding	no binding	1.02	0.00101	994000	chimeric anti-human CD47 monoclonal antibody mAb-18-10 (antibody, human IgG1, kappa) heavy: not shown light: DIVMTQSQKFMSTSVGDRVSITCKASQNVRTSIAWYQQKPGQSPKTLIYLASNRHTGVPDRFTGSGSGTDFTLTISNVQSEDLADYFCLQHWNYPFTFGSGTKLEIKRTVAAPSVFIFPPSDEQLKSGTASVVCLLNNFYPREAKVQWKVDNALQSGNSQESVTEQDSKDSTYSLSSTLTLSKADYEKHKVYACEVTHQGLSSPVTKSFNRGEC
